Laboratory results published in patent US20250313859.

Target: anti-human ARSA (hARSA) antibodies in cerebrospinal fluid and serum of cynomolgus macaques given AAVhu68.CB7.CI.hARSAco.rBG

B1: human ARSA enzyme expressed from the AAVhu68.CB7.CI.hARSAco.rBG transgene in cynomolgus macaques (protein)
chain: RPPNIVLIFADDLGYGDLGCYGHPSSTTPNLDQLAAGGLRFTDFYVPVSLCTPSRAALLTGRLPVRMGMYPGVLVPSSRGGLPLEEVTVAEVLAARGYLTGMAGKWHLGVGPEGAFLPPHQGFHRFLGIPYSHDQGPCQNLTCFPPATPCDGGCDQGLVPIPLLANLSVEAQPPWLPGLEARYMAFAHDLMADAQRQDRPFFLYYASHHTHYPQFSGQSFAERSGRGPFGDSLMELDAAVGTLMTAIGDLGLLEETLVIFTADNGPETMRMSRGGCSGLLRCGKGTTYEGGVREPALAFWPGHIAPGVTHELASSLDLLPTLAALAGAPLPNVTLDGFDLSPLLLGTGKSPRQSLFFYPSYPDEVRGVFAVRTGKYKAHFFTQGSAHSDTTADPACHASSSLTAHEPPLLYDLSKDPGENYNLLGGVAGATPEVLQALKQLQLLKAQLDAAVTFGPSQVARGEDPALQICCHPGCTPRPACCHCPDPHA
- ARSA activity levels in CSF (hydrolysis of 4-nitrocatechol sulfate): CSF ARSA activity levels returned to approximately baseline levels over the subsequent 28 days
